Test results as given in the supplement of paper PMC10598134.
± gives the standard deviation.

Assay: collision cross section of modified peptide (TIMS, N2, iRT-aligned); higher = larger / more extended gas-phase ion
Procedure, shortened: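 Values are averages of 1–3 technical replicates of the most abundant feature for each charge state. Collision cross section was obtained from the Mason-Schamp equation after 1/K0 calibration with three reference ions and run-wise alignment to the median iRT peptide deviation. Synthetic peptide pools (iRT standard spiked 1:40) were separated on a 120-min nanoflow C18 gradient at 60 °C, analysed on a timsTOF Pro/HT (dda-PASEF, nitrogen, ~2.4 mbar) and identified with MaxQuant.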

[1] = charge state: 3, modification: Malonyl
[2] = charge state: 2, modification: Nitro (Y)
[3] = charge state: 2, modification: Succinyl
[4] = charge state: 3, modification: Succinyl
[5] = charge state: 2, modification: Crotonyl
[6] = charge state: 2, modification: Dimethyl (K)
[7] = charge state: 3, modification: Dimethyl (K)
[8] = charge state: 2, modification: hydroxyisobutyryl
[9] = charge state: 3, modification: hydroxyisobutyryl
[10] = charge state: 2, modification: Methyl (K)
[11] = charge state: 3, modification: Methyl (K)
[12] = charge state: 3, modification: Trimethyl (K)
[13] = charge state: 2, modification: Trimethyl (K)

## VGIDTPDIDIHGPEGKLK [_VGIDTPDIDIHGPEGK(Malonyl)LK_]
[1]
  collision cross section: 540.98 Å²

## LSSETYSQAK [_LSSETY(Nitro (Y))SQAK_]
[2]
  collision cross section: 352.74 ± 0.47 Å²

## AGPNASIISLKSDK [_AGPNASIISLK(Succinyl)SDK_]
[3]
  collision cross section: 414.91 ± 0.86 Å²

## DTGEKLTVAENEAETK [_DTGEK(Succinyl)LTVAENEAETK_]
[3]
  collision cross section: 445.72 ± 1.1 Å²
[4]
  collision cross section: 515.74 ± 2.2 Å²

## ASAISIKLGSSK [_ASAISIK(Succinyl)LGSSK_]
[3]
  collision cross section: 372.2 ± 0.24 Å²

## VGTASVLQPVKK [_VGTASVLQPVK(Succinyl)K_]
[3]
  collision cross section: 383.62 ± 0.87 Å²
[4]
  collision cross section: 412.94 ± 4.4 Å²

## SLFFGGKGAPLQR [_SLFFGGK(Crotonyl)GAPLQR_]
[5]
  collision cross section: 404.03 ± 0.35 Å²

## VTLEVGKVIQQGR [_VTLEVGK(Dimethyl (K))VIQQGR_]
[6]
  collision cross section: 422.85 ± 1.4 Å²
[7]
  collision cross section: 464.75 ± 1.6 Å²

## STGLELETPSLVPVKK [_STGLELETPSLVPVK(hydroxyisobutyryl)K_]
[8]
  collision cross section: 440.07 ± 0.82 Å²
[9]
  collision cross section: 511.71 ± 25 Å²

## VHATSTYR [_VHATSTY(Phospho (Y))R_]
Charge state: 2, modification: Phospho (Y)
  collision cross section: 330.17 ± 0.75 Å²
Charge state: 3, modification: Phospho (Y)
  collision cross section: 411.28 Å²

## DYSSGFGGKYGVQADR [_DYSSGFGGK(Dimethyl (K))YGVQADR_]
[6]
  collision cross section: 435.9 ± 1.8 Å²
[7]
  collision cross section: 488.23 ± 0.74 Å²

## YEITEQR [_Y(Nitro (Y))EITEQR_]
[2]
  collision cross section: 327.03 ± 0.71 Å²

## ATVASSTQKFQDLGVK [_ATVASSTQK(Succinyl)FQDLGVK_]
[3]
  collision cross section: 444.76 ± 1.1 Å²
[4]
  collision cross section: 493.48 ± 0.68 Å²

## INNFSADIKDSK [_INNFSADIK(Crotonyl)DSK_]
[5]
  collision cross section: 405.9 ± 0.28 Å²
Charge state: 3, modification: Crotonyl
  collision cross section: 458.84 ± 1.6 Å²

## VNALKNLQVK [_VNALK(Acetyl (K))NLQVK_]
Charge state: 2, modification: Acetyl (K)
  collision cross section: 369.79 ± 0.48 Å²

## DDSFLGKLGGTLAR [_DDSFLGK(hydroxyisobutyryl)LGGTLAR_]
[8]
  collision cross section: 418.74 ± 0.55 Å²
[9]
  collision cross section: 495.38 ± 2.8 Å²

## GARLPGPVSSAR [_GAR(Citrullination (R))LPGPVSSAR_]
Charge state: 2, modification: Citrullination (R)
  collision cross section: 355.27 ± 6 Å²
Charge state: 3, modification: Citrullination (R)
  collision cross section: 446.63 Å²

## YEEIVKEVSTYIK [_YEEIVK(hydroxyisobutyryl)EVSTYIK_]
[8]
  collision cross section: 436.97 ± 5 Å²

## KFGVLSDNFK [_K(Methyl (K))FGVLSDNFK_]
[10]
  collision cross section: 372.37 ± 0.47 Å²
[11]
  collision cross section: 448.39 ± 4.9 Å²

## TPLTHALPGLSEQEGQK [_T(HexNAc (ST))PLTHALPGLSEQEGQK_]
Charge state: 3, modification: HexNAc (ST)
  collision cross section: 513.42 ± 0.96 Å²

## ALYETELADAR [_ALY(Nitro (Y))ETELADAR_]
[2]
  collision cross section: 387.94 ± 0.55 Å²

## PSVGSQSNQAGQGKR [_PSVGSQSNQAGQGK(Malonyl)R_]
Charge state: 2, modification: Malonyl
  collision cross section: 406.87 ± 1.8 Å²
[1]
  collision cross section: 446.38 Å²

## VPTTEKPTVTVNFR [_VPTTEK(Trimethyl (K))PTVTVNFR_]
[12]
  collision cross section: 499.21 ± 1.6 Å²

## LGNDFHTNKR [_LGNDFHTNK(Methyl (K))R_]
[10]
  collision cross section: 368.02 ± 0.46 Å²
[11]
  collision cross section: 430.67 ± 6.2 Å²

## ASEALLKQLK [_ASEALLK(Trimethyl (K))QLK_]
[13]
  collision cross section: 371.28 ± 0.027 Å²
[12]
  collision cross section: 439.12 ± 1.8 Å²

## LFVGGIKEDTEEHHLR [_LFVGGIK(Butyryl)EDTEEHHLR_]
Charge state: 2, modification: Butyryl
  collision cross section: 500.41 ± 0.28 Å²
Charge state: 3, modification: Butyryl
  collision cross section: 545.89 ± 1.3 Å²

## SITHSTVGSKGEK [_SITHSTVGSK(GlyGly (K))GEK_]
Charge state: 2, modification: GlyGly (K)
  collision cross section: 404.23 ± 1.4 Å²
Charge state: 3, modification: GlyGly (K)
  collision cross section: 469.84 ± 1.3 Å²

## VDIDVPDVNIEGPDAKLK [_VDIDVPDVNIEGPDAK(Trimethyl (K))LK_]
[13]
  collision cross section: 470.5 Å²
[12]
  collision cross section: 538.87 ± 1.8 Å²

## ANEKTESSSAQQVAVSR [_ANEK(Succinyl)TESSSAQQVAVSR_]
[3]
  collision cross section: 443.48 ± 0.35 Å²
[4]
  collision cross section: 533.43 ± 0.35 Å²
